# Experimental data published in article doi:10.1101/2023.09.21.558905.
# T1: GUN1 (132-918) (Arabidopsis thaliana, UniProt Q9SIC9 132-918)
# T1 sequence: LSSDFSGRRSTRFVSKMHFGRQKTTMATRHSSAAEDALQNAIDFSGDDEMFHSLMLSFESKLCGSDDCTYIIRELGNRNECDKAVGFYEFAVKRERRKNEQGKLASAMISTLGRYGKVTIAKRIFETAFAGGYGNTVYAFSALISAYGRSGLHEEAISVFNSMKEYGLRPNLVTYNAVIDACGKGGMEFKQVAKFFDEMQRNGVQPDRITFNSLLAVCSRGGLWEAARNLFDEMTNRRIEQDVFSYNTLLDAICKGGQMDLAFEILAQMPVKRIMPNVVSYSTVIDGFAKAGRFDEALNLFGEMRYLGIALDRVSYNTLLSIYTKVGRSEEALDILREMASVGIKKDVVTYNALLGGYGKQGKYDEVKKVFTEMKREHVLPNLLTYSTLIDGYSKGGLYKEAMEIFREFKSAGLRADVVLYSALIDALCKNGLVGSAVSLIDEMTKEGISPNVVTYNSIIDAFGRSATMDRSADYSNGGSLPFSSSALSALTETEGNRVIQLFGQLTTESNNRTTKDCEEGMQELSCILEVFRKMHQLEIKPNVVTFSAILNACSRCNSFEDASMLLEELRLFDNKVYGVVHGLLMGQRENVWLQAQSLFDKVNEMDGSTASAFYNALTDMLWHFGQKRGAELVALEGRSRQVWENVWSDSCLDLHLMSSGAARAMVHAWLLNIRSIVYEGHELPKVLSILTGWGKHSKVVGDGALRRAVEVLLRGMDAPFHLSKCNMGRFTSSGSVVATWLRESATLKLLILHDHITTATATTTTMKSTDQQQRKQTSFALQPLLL
# Target: T1, GUN1 (132-918)
# Assay: EMSA
row,Binder,binding result
1,GGAAAUCCGUCGAUAUCUCU (ssRNA) [RNA1 (psbD BLRP 5'-UTR)],binds
2,GGACCUCCUUCUCUAUCUCU (ssRNA) [RNA2],no binding
3,GGACCGAAUGAUCUAUCUCU (ssRNA) [RNA3],no binding
